Measured values taken from paper PMC4240464 (The Febs Journal, 2013).
Read-outs that look alike come from different tables or passages of the source.

T1: Evasin-4 (untagged recombinant) (Rhipicephalus sanguineus, UniProt P0C8E9 24-127, appears to be highly glycosylated (six putative N-glycosylation sites))
T1 sequence: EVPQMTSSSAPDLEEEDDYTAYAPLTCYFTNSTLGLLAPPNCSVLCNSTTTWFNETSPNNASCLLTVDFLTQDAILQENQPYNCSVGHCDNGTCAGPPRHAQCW

T2: CCL25 (human, UniProt O15444 24-150)
T2 sequence: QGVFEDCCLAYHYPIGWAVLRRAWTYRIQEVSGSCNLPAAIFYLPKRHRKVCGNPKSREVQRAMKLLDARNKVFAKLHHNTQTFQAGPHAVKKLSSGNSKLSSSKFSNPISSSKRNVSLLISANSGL

T3: CCL21 (human, UniProt O00585 24-134)
T3 sequence: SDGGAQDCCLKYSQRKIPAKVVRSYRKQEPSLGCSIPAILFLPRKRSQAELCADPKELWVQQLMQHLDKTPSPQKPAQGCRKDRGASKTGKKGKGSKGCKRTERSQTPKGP

B1: 6His–Evasin-4 (natural protein)
chain: EVPQMTSSSAPDLEEEDDYTAYAPLTCYFTNSTLGLLAPPNCSVLCNSTTTWFNETSPNNASCLLTVDFLTQDAILQENQPYNCSVGHCDNGTCAGPPRHAQCW

Key:
Experiment in all cases: SPR
6His–Evasin-4 [1] = target: B1
6His–Evasin-4 [2] = target: B1; remark: listed apart in the source
[3] = target: T1, Evasin-4 (untagged recombinant)
CCL25 = target: T2, CCL25
CCL21 = target: T3, CCL21

| Binder | Kd (6His–Evasin-4 [1]) [pM] | koff (6His–Evasin-4 [1]) [s⁻¹] | kon (6His–Evasin-4 [1]) [M⁻¹ s⁻¹] | Kd (6His–Evasin-4 [2]) [pM] | Kd [3] [pM] | Kd (CCL25) [pM] | koff (CCL25) [s⁻¹] | kon (CCL25) [M⁻¹ s⁻¹] | Kd (CCL21) [pM] | koff (CCL21) [s⁻¹] | kon (CCL21) [M⁻¹ s⁻¹] |
| --- | --- | --- | --- | --- | --- | --- | --- | --- | --- | --- | --- |
| CCL14 (ligand) TKTESSSRGPYHPSECCFTYTTYKIPRQRIMDYYETNSQCSKPGIVFITKRGHSVCTNPSDKWVQDYIKDMKEN | 140 | 0.00148 | 1.04e+07 | – | – | – | – | – | – | – | – |
| CCL1 (ligand) KSMQVPFSRCCFSFAEQEIPLRAILCYRNTSSICSNEGLIFKLKRGKEACALDTVGWVQRHRKMLRHCPSKRK | 200 | 0.00326 | 1.66e+07 | 1810 | 112000 | – | – | – | – | – | – |
| CCL23 (ligand) RVTKDAETEFMMSKLPLENPVLLDRFHATSADCCISYTPRSIPCSLLESYFETNSECSKPGVIFLTKKGRRFCANPSDKQVQVCMRMLKLDTRIKTRKN | 4430 | 3e-05 | 6000 | 10800 | 14100 | – | – | – | – | – | – |
| CCL8 (ligand) QPDSVSIPITCCFNVINRKIPIQRLESYTRITNIQCPKEAVIFKTKRGKEVCADPKERWVRDSMKHLDQIFQNLKP | 250 | 0.00176 | 7.11e+06 | 220 | – | – | – | – | – | – | – |
| CCL16 (ligand) QPKVPEWVNTPSTCCLKYYEKVLPRRLVVGYRKALNCHLPAIIFVTKRNREVCTNPNDDWVQEYIKDPNLPLLPTRNLSTVKIITAKNGQPQLLNSQ | 260 | 0.00306 | 1.2e+07 | – | – | – | – | – | – | – | – |
| CCL5 E26A (ligand) SPYSSDTTPCCFAYIARPLPRAHIKAYFYTSGKCSNPAVVFVTRKNRQVCANPEKKWVREYINSLEMS | 90 | 0.00223 | 2.6e+07 | 2 | 194000 | – | – | – | – | – | – |
| CCL15 (ligand) QFTNDAETELMMSKLPLENPVVLNSFHFAADCCTSYISQSIPCSLMKSYFETSSECSKPGVIFLTKKGRQVCAKPSGPGVQDCMKKLKPYSI | 2310 | 0.0936 | 4.05e+07 | 199 | 132000 | – | – | – | – | – | – |
| CCL11 (ligand) not shown | 340 | 0.00435 | 1.29e+07 | 69 | 128000 | – | – | – | – | – | – |
| CCL3 (ligand) SLAADTPTACCFSYTSRQIPQNFIADYFETSSQCSKPGVIFLTKRSRQVCADPSEEWVQKYVSDLELSA | 60 | 0.00089 | 1.38e+07 | 393 | 33100 | – | – | – | – | – | – |
| CCL22 (ligand) GPYGANMEDSVCCRDYVRYRLPLRVVKHFYWTSDSCPRPGVVLLTFRDKEICADPRVPWVKMILNKLSQ | 430 | 0.0038 | 8.9e+06 | – | – | – | – | – | – | – | – |
| CCL7 (ligand) not shown | 700 | 0.00988 | 1.41e+07 | 45 | – | – | – | – | – | – | – |
| CCL24 (ligand) VVIPSPCCMFFVSKRIPENRVVSYQLSSRSTCLKAGVIFTTKKGQQFCGDPKQEWVQRYMKNLDAKQKKASPRARAVAVKGPVQRYPGNQTTC | 410 | 0.0125 | 3.05e+07 | 142000 | – | – | – | – | – | – | – |
| CCL19 (ligand) GTNDAEDCCLSVTQKPIPGYIVRNFHYLLIKDGCRVPAVVFTTLRGRQLCAPPDQPWVERIIQRLQRTSAKMKRRSS | 140 | 0.00035 | 2.57e+06 | – | – | – | – | – | – | – | – |
| CCL18 (ligand) AQVGTNKELCCLVYTSWQIPQKFIVDYSETSPQCPKPGVILLTKRGRQICADPNKKWVQKYISDLKLNA | 30 | 0.00053 | 1.96e+07 | 198 | – | – | – | – | – | – | – |
| CCL26 (ligand) TRGSDISKTCCFQYSHKPLPWTWVRSYEFTSNSCSQRAVIFTTKRGKKVCTHPRKKWVQKYISLLKTPKQL | 880 | 0.00015 | 170000 | 11400 | – | – | – | – | – | – | – |
| CCL17 (ligand) ARGTNVGRECCLEYFKGAIPLRKLKTWYQTSEDCSRDAIVFVTVQGRAICSDPNNKRVKNAVKYLQSLERS | 610 | 0.0107 | 1.76e+07 | – | 126000 | – | – | – | – | – | – |
| B1 | – | – | – | – | – | 69600 | 0.00054 | 8000 | 10 | 8e-05 | 1.1e+07 |
